Source: US20190024087

Molecular target: T1, GDF11 (mature human) (Homo sapiens) (UniProt O95390)
T1 sequence: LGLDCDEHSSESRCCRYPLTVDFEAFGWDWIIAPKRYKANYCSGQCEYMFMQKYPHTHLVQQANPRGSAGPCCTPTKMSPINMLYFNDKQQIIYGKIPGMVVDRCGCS
Experiment: filter
Details: NapdU at all P (n) positions; 0.1 uM Z-block

Sequence	Kd
CCCTGCGCCTTCGGACTTGATTTAAGTTTAGCCGCTTGCTCACATCACAA [12060-28_38]	1.1 nM
CCCTGCGCCTTCGGACTTGCTTTAAGTTTAGCCGCTCGCTCACATCACAA [12060-204_3]	0.94 nM
CCCTGCGCCTTCGGACTTGCTTTAAGTTTAGCCGCTTGCTCACAACACAA [12060-300_3]	0.99 nM
CCCTGCGCCTTCGGACTTGCTTTAAGTTTAGCCGCTTGCTCACGTCACAA [12060-130_3]	0.61 nM
CCCTGCGCCTTCGGACTTGCTTTAAGTTTAGCCGCTTGCTTACATCACAA [12060-116_3]	1.14 nM
CCCTGCGCCTTCGGACTTGCTTTAAGTTTAGCCGCTTGTTCACATCACAA [12060-4_3]	0.9 nM
CCCTGCGCCTTCGGACTTGCTTTACGTTTAGCCGCTTGCTCACATCACAA [12060-238_3]	3.4 nM
CCCTGCGCCTTCGGACTTGCTTTAGGTTTAGCCGCTTGCTCACATCACAA [12060-28_40]	1.4 nM
CCCTGCGCCTTCGGACTTGGTTTAAGTTTAGCCGCTTGCTCACATCACAA [12060-28_39]	1.2 nM
CCCTGGTTGACAAGGTACTGGACTTGATTTACGTTTAGCCTCAAGCACAA [12058-386_3]	6.7 nM
CCCTGTGCCTTCGGACTTGCTTTAAGTTTAGCCGCTTGCTCACATCACAA [12060-32_3]	1.45 nM
CTGTGAACTTGATTTAAGTTTAGGCACATACACCACTCCGGACGA [16139-198_3]	0.62 nM
CTGTGACCTTCACCCGTGACTTGGTTTACGTTTAGCGGGTAGGTCACAA [16139-178_3]	1.08 nM
CTGTGACTAATGTGACCGGAGACTTGCTTTACGTTTAGCGACCTGCACAA [16139-12_3]	1.7 nM
CTGTGAGTGTACCTCGCGCTTGATTTACGTTTAGGCGAGGCAGGCCACAA [16139-30_3]	0.92 nM
CTGTGCGTACTGACTTGATTTACGTTTTAGCGATGCATGCTTGAGCCACAA [16139-122_3]	2.23 nM
CTGTGCTAAGACTGCGGACTTGATTTAGGTTTAGCCGCAAGAAGTCACAA [16139-37_3]	1.21 nM
CTGTGGACTGAGTTGGATGGGACTTGATTTAAGTTTAGCCCGCAACACAA [16139-3_3]	1.58 nM
CTGTGGTTAACGACGACTTGATTTACGTTTAGCGGCACCTTACACCACAA [16139-19_3]	1.7 nM

Same assay, conditions: NapdU at all P (n) positions; 0.1 uM Z-block; Table 5 gives 4.17 nM, p194 1.74 nM with 1 uM Z-block

Sequence	Kd
CCCTGCGCCTTCGGACTTGCTTTAAGTTTAGCCGCTTGCTCACATCACAA [12060-28_3]	1.7 nM

Same assay, conditions: NapdU at all P (n) positions; 0.1 uM Z-block; Table 5 gives 6.52 nM

Sequence	Kd
CCCTGTGAGACTTGATTTACGTTTAGCTGCTAACATGGGGAACCACACAA [12060-16_3]	6.5 nM
